Data set [1] deals with tRNA. In words: Aminoacylation assay (tRNA charging). As to conditions: for Fold change: relative to progenitor pAcFRS. The data set is classed as biochemical. As to the method: Template plasmid containing tRNA gene was purified with the plasmid maxi kit (Qiagen), and 100 μg of plasmid was digested with BstNI (New England Biolabs). The BstNI digested template DNA was purified by phenol chloroform extraction, followed by ethanol precipitation and resolved in double distilled water. A His-tagged T7 RNA polymerase was purified over column of Ni-NTA resin according to manufacturer's instructions (Qiagen). The transcription reaction [40 mM Tris (pH 8); 4 mM each of UTP, CTP, GTP, and ATP at pH 7.0; 22 mM MgCl2; 2 mM spermidine; 10 mM DTT; 6 μg pyrophosphatase (Roche Applied Science); 60 μg/mL BstNI digested DNA template, approximately 0.2 mg/ml T7 RNA polymerase] was performed in 10 ml reaction volumes for overnight at 37° C. The tRNA was purified on 12% denaturing polyacrylamide gel containing 8 M urea and TBE buffer (90 mM Tris, 90 mM boric acid, 2 mM EDTA). UV shadowing illuminates the pure tRNA band, which is excised and extracted three times with 1M sodium acetate pH 5.3 at 4° C. The tRNA extractions were then ethanol precipitated, dissolved in RNase-free distilled water, pooled, and finally desalted using a Biospin 30 column (BioRad). The ratio of aminoacylated tRNA to total tRNA was determined to monitor reaction progress.
The tRNA was refolded by heating to 100° C. for 5 min and slow cooling to room temperature. At 65° C., MgC12, was added to a final concentration of 10 mM to aid folding. A His-tagged CCA adding enzyme was purified over column of Ni-NTA resin according to manufacturer's instructions (Qiagen). 16 μM folded tRNA in 50 mM Tris (pH 8.0), 20 mM MgCl2, 5 mM DTT and 50 μM NaPPi was incubated at room temperature for 1 hour with approximately 0.2 mg/ml CCA-adding enzyme and 1.6 μCi/μl of [α-32P]-labeled ATP (PerkinElmer). The sample was phenol/chloroform extracted and then passed over a Bio-spin 30 column (Bio-Rad) to remove excess ATP.
A 20 μl aminoacylation reaction contained the following components: 50 mM HEPES-KOH (pH 7.2), 25 mM KCl, 10 mM MgCl2, 5 mM DTT, 10 mM ATP, 25 μg/ml pyrophosphatase (Roche Applied Science), 2 mM amino acids. All plateau tRNA aminoacylation levels were determined at 37° C. according to the reactions conditions described above with 500 nM enzyme, 5 μM unlabeled tRNA plus 100 nM 32P-labeled tRNA. Time points were taken at 5 minutes, 20 minutes and 60 minutes by removing 2 μl aliquots from the reaction and immediately quenching the reaction into an ice-cold 3 μl quench solution [0.66 μg/μl nuclease P1 (Sigma) in 100 mM sodium citrate (pH 5.0)]. For each reaction, 2 μl of blank reaction mixture containing no enzymes was added to the quench solution as the start time point. The nuclease P1 mixture was then incubated at room temperature for 30 min and 1 μl aliquots were spotted on PEI-cellulose plates (Merck) and developed in running buffer containing 5% acetic acid and 100 mM ammonium acetate. Radioactive spots for AMP and AA-AMP (representing free tRNA and aminoacyl-tRNA, respectively) were separated and then visualized and quantified by phosphor imaging by a Molecular Dynamics Storm 860 phosphorimager (Amersham Biosciences). The ratio of aminoacylated tRNA to total tRNA was determined to monitor reaction progress.

Data set [2] in a line: ATP-PPi exchange assay (amino acid activation). Type of data set: biochemical. The conditions noted are these: for Fold change: relative to progenitor pAcFRS. As to the method:
A 25 μl ATP-PPi exchange reaction contained the following components: 100 mM HEPES-KOH (pH 7.5), 30 mM KCl, 10 mM MgCl2, 2 mM DTT, 2 mM KF, 2 mM NaPPi, 5 mM ATP, […], 2 μCi/μl of […] (PerkinElmer) and varied concentrations of amino acids (0.25, 0.5, 1.25, 2.5, 5, 10, and 20 mM, respectively). The reactions were incubated at 37° C. Time points were taken at 2 minutes, 5 minutes and 10 minutes by plotting 1 μl aliquots from the reaction immediately to the PEI-cellulose plates (Merck). For each reaction, 1 μl of blank reaction mixture containing no enzymes was set as background. The reaction mixtures were separated on the plates in 1 M urea and 1 M monopotassium phosphate. The plates were then scanned in a Molecular Dynamics Storm 860 phosphorimager (Amersham Biosciences). The ratio of ATP to PPi was determined to monitor reaction progress. The kinetic constants were derived from plotting initial velocity of a series of reactions that contained varied concentrations of amino acids. The data were analyzed by GraFit 5.0 (Erithacus Software).

In data set [3] the test system is GFP(3TAG). As to the kind of experiment: nsAA library screening, GFP(3TAG) fluorescence in 384 well plates. Type of data set: cell-based, E. coli. The conditions noted are these: GFP(3TAG) production in the presence of pAcF, pAzF and 236 other nsAAs. As to the method: (§1) Liquid cell cultures of strains harboring chromosomally integrated OTSs and GFP reporter plasmids were inoculated from frozen stocks and grown to confluence overnight. Cultures were then inoculated at 1:20 dilution in LBmin media supplemented with 30 μg/ml kanamycin. Strains were inoculated by addition of 1:20 confluent cell culture (grown overnight) and allowed to grow at 34° C. to an OD600 of 0.5-0.8 in a shaking plate incubator at 650 r.p.m (˜3 h). AARS expression was then induced by the addition of 0.2% arabinose, GFP expression was induced by the addition of 60 ng/ul anhydrotetracycline, and the appropriate nsAA was added to a concentration of 1 mM. Cells were incubated at 34° C. for an additional 16 h. Liquid cell cultures of strains harboring plasmid-based OTSs and GFP or ELP-GFP reporter plasmids were inoculated from frozen stocks and grown to confluence overnight. Cultures were then inoculated at 1:20 dilution in 2×YT media supplemented with 30 μg/ml kanamycin and 20 μg/ml chloramphenicol. […] Cells were allowed to grow at 34° C. to an OD600 of 0.5-0.8 in a shaking plate incubator at 650 r.p.m (˜3 h), reporter protein expression was then induced by the addition of 60 ng/ul anhydrotetracycline, and cells were incubated at 34° C. for an additional 16 h.
For 384 well plate-based assays, fluorescence and OD600 were directly measured following expression. For 96 well plate-based assays, cells were centrifuged at 4,000 g for 4 min. Supernatant medium was removed and cells were resuspended in PBS. This process was repeated twice with PBS. GFP fluorescence was measured on a Biotek spectrophotometric plate reader using excitation and emission wavelengths of 395 and 509 nm, respectively). Fluorescence signals were normalized by dividing the fluorescence counts by the OD600 reading. The nsAAs used in this study were purchased from Sigma-Aldrich (St. Louis, Mo.), Chemlmpex (Wood Dale, Ill.), and Bachem (Torrance, Calif.). Solutions of nsAAs (50 mM) were made in water or 50 mM NaOH; these stock solutions were diluted 50- or 100-fold (to 1 mM final concentration) into medium used for bacterial growth. […]

In data set [4] the test system is GFP(3TAG). Type of data set: cell-based, E. coli. As to conditions: chromosomally integrated AARS. As to the method: as §1
For 384 well plate-based assays, fluorescence and OD600 were directly measured following expression. For 96 well plate-based assays, cells were centrifuged at 4,000 g for 4 min. Supernatant medium was removed and cells were resuspended in PBS. This process was repeated twice with PBS. GFP fluorescence was measured on a Biotek spectrophotometric plate reader using excitation and emission wavelengths of 395 and 509 nm, respectively). Fluorescence signals were normalized by dividing the fluorescence counts by the OD600 reading. The nsAAs used in this study were purchased from Sigma-Aldrich (St. Louis, Mo.), Chemlmpex (Wood Dale, Ill.), and Bachem (Torrance, Calif.). Solutions of nsAAs (50 mM) were made in water or 50 mM NaOH; these stock solutions were diluted 50- or 100-fold (to 1 mM final concentration) into medium used for bacterial growth.

Entries after “also recorded” stand apart in the source; their conditions may differ. Like-named read-outs stand apart in the source and are kept apart here.

As a reminder, the Km is the concentration of substrate that gives half-maximal velocity.

B1: pAcFRS.1.t2: pAcFRS variant A167D, R257C, F261E, SEQ ID NO: 6 (protein)
chain: MDEFEMIKRNTSEIISEEELREVLKKDEKSALIGFEPSGKIHLGHYLQIKKMIDLQNAGFDIIILLADLHAYLNQKGELDEIRKIGDYNKKVFEAMGLKAKYVYGSEFQLDKDYTLNVYRLALKTTLKRARRSMELIAREDENPKVAEVIYPIMQVNGCHYRGVDVDVGGMEQRKIHMLARELLPKKVVCIHNPVLTGLDGEGKMSSSKGNFIAVDDSPEEIRAKIKKAYCPAGVVEGNPIMEIAKYFLEYPLTIKCPEKEGGDLTVNSYEELESLFKNKELHPMRLKNAVAEELIKILEPIRKRL
Consider B1, for which, in data set [1] (nsAA pAcF), the Km was 27 ± 3 µM, the kcat was 1.03 ± 0.06 ×10^−3 s^−1 and the Fold change is given as 5.22. In data set [2] (nsAA pAcF), the Km is 1690 ± 440 µM, the kcat is recorded as 6.30 ± 0.46 ×10^−2 s^−1 and the Fold change came out at 5.47. For the same molecule, the “nsAA specificity (polyspecificity)” value in data set [3] is “polyspecifity for at least pAcF, pAzF, StyA, 4IF, 4BrF, 4ClF, 4MeF, 4Cf3F, MeY, 4NO2F, 4BuF, BuY, 2NaA, PheF”. Further, the “higher GFP(3TAG) production compared with the progenitor enzyme” value in data set [4] (pAcF) is recorded as approximately 15 fold.

B2: pAcFRS.2: pAcFRS variant L65V, A167D, SEQ ID NO: 7 (protein)
chain: MDEFEMIKRNTSEIISEEELREVLKKDEKSALIGFEPSGKIHLGHYLQIKKMIDLQNAGFDIIIVLADLHAYLNQKGELDEIRKIGDYNKKVFEAMGLKAKYVYGSEFQLDKDYTLNVYRLALKTTLKRARRSMELIAREDENPKVAEVIYPIMQVNGCHYRGVDVDVGGMEQRKIHMLARELLPKKVVCIHNPVLTGLDGEGKMSSSKGNFIAVDDSPEEIRAKIKKAYCPAGVVEGNPIMEIAKYFLEYPLTIKRPEKFGGDLTVNSYEELESLFKNKELHPMRLKNAVAEELIKILEPIRKRL
For the molecule B2, the Km in data set [1] (nsAA pAcF) was 31 ± 7 µM; in data set [1] (nsAA pAzF), 33 ± 8 µM; in data set [2] (nsAA pAcF) it was 3130 ± 1730 µM; in data set [2] (nsAA pAzF), 6400 ± 780 µM. For the same molecule, the kcat in data set [1] (nsAA pAcF) is reported as 0.58 ± 0.09 ×10^−3 s^−1; in data set [1] (nsAA pAzF) it was 0.18 ± 0.02 ×10^−3 s^−1; in data set [2] (nsAA pAcF), 5.28 ± 0.79 ×10^−2 s^−1; in data set [2] (nsAA pAzF), 4.08 ± 0.20 ×10^−2 s^−1. Further, the Fold change in data set [1] (nsAA pAcF) is 2.56; in data set [1] (nsAA pAzF), 0.88; in data set [2] (nsAA pAcF) it was 2.48; in data set [2] (nsAA pAzF) it was 0.44. The “nsAA specificity (polyspecificity)” value in data set [3] is reported as “polyspecifity for at least pAcF, pAzF, StyA, 4IF, 4BrF, 4ClF, 4MeF, 4Cf3F, MeY, 4NO2F, 4BuF, BuY, 2NaA, PheF”. The “selectivity toward pAcF over pAzF” value in data set [4] (GFP(3TAG) expression) was “increase in selectivity”.

B3: pAzFRS.1: pAcFRS variant D158V, I159M, L162D, A167Y, SEQ ID NO: 10 (protein)
chain: MDEFEMIKRNTSEIISEEELREVLKKDEKSALIGFEPSGKIHLGHYLQIKKMIDLQNAGFDIIILLADLHAYLNQKGELDEIRKIGDYNKKVFEAMGLKAKYVYGSEFQLDKDYTLNVYRLALKTTLKRARRSMELIAREDENPKVAEVIYPIMQVNVMHYDGVDVYVGGMEQRKIHMLARELLPKKVVCIHNPVLTGLDGEGKMSSSKGNFIAVDDSPEEIRAKIKKAYCPAGVVEGNPIMEIAKYFLEYPLTIKRPEKFGGDLTVNSYEELESLFKNKELHPMRLKNAVAEELIKILEPIRKRL
On to B3, for which, in data set [1] (nsAA pAzF), the Michaelis constant (Km) is 38 ± 5 µM, the kcat is 0.46 ± 0.18 ×10^−3 s^−1 and the Fold change is reported as 1.48. In data set [2] (nsAA pAzF), the Km came out at 1180 ± 210 µM, the kcat is 4.61 ± 0.18 ×10^−2 s^−1 and the Fold change is 2.68. In data set [3], the “nsAA specificity (polyspecificity)” value was “specific for pAzF; also recorded: exceptional specificity toward pAzF with almost complete exclusion of any other nsAA; also recorded: both more efficient and more specific for pAzF than previously reported pAzFRSs”. The “higher GFP(3TAG) production compared with the progenitor enzyme” value in data set [4] (pAzF) is approximately 3.5 fold.
